Source: patent US20250179197A1

Legend:
[1] = target: T1, IL-18 receptor (IL-18Rα and IL-18Rβ) on HEK-Blue IL-18 cells (UniProt Q13478); assay: cell-based or functional assay
T1 sequence (looked up) 1: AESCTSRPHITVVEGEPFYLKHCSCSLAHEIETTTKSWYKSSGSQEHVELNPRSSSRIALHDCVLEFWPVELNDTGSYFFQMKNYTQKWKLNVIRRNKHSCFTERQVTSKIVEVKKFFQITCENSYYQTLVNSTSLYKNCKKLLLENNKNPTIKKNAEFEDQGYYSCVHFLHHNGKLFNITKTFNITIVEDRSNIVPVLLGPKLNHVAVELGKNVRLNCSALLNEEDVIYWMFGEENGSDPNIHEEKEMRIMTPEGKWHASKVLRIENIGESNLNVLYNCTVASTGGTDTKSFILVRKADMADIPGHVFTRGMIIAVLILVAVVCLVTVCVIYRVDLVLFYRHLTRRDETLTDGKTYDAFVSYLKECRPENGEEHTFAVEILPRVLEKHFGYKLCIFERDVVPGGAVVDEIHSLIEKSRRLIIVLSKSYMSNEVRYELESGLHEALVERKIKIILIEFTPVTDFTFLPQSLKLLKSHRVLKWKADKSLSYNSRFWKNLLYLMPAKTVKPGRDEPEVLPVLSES
T1 sequence (looked up) 2: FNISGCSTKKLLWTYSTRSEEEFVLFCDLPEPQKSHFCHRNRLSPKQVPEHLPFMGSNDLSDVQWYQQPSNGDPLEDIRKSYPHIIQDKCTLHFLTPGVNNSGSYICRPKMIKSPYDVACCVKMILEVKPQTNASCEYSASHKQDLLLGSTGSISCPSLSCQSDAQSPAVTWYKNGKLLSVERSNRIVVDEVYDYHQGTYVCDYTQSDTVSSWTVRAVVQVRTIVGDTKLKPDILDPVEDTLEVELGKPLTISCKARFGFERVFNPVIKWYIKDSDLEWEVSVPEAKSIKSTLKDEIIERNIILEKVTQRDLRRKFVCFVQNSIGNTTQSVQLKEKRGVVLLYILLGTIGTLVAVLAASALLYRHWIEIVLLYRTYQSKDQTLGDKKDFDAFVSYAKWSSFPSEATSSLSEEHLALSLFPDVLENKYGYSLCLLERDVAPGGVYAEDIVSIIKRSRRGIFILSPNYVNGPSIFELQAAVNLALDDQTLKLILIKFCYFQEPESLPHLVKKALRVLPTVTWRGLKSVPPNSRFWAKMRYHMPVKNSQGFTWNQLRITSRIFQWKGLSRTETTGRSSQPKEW

[2] = target: T2, IL-18 receptor (IL-18Rα/IL-18Rβ) on human PBMCs (human) (UniProt Q13478); assay: cell-based or functional assay
T2 sequence (looked up) 1: T1 sequence (looked up) 1
T2 sequence (looked up) 2: T1 sequence (looked up) 2

Chain of Human IL-18 (Q14116 37-193 limits assumed): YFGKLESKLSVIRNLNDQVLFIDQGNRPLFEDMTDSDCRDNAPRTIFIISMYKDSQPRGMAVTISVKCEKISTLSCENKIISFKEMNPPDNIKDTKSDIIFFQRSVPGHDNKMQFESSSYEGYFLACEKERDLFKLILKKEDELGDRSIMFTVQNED

## Human IL-18 (from UniProt Q14116 37-193) (ligand)
[1]
  HEK-Blue: Abs 405 at 100 nM: 2.6 absorbance
  HEK-Blue: Fold over background: 14.4 fold
[2]
  Calculated maximum induction of IFN-γ after 24 hours, donor 1: 42000
  Calculated maximum induction of IFN-γ after 24 hours, donor 2: 5300
  Calculated maximum induction of IFN-γ after 24 hours, donor 3: 89000
  Calculated maximum induction of IFN-γ after 24 hours, donor 4: 69000
  Calculated maximum induction of IFN-γ after 24 hours, donor 5: 150000
  Calculated maximum induction of IFN-γ after 24 hours, donor 6: 28000
